Laboratory results: article PMC4335062, “Data-Driven Prediction and Design of bZIP Coiled-Coil Interactions” (PLoS Computational Biology, 2015)
Where no end group is shown, it is not given here.

How the values were obtained:
[1] = target: T1, XBP1 (Homo sapiens, UniProt P17861); settings: native human bZIP binding XBP1; cited from earlier work
T1 construct: made in house
T1 sequence (P17861 70-133 limits assumed): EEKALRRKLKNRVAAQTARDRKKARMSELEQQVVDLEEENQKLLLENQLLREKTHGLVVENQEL
Excerpt: We chose five human bZIP proteins as targets: X-box binding protein 1 (XBP1), JUN, Activating Transcription Factor (ATF) 3, ATF4 and ATF5. These are proteins for which an interaction partner was designed in prior work, but either the affinity or the specificity of the design left room for improvement. […] For example, XBP1-d1 was composed of heptads from N. vectensis, C. elegans and C. intestinalis proteins, and from previously designed bZIP binders. We also note that our four designs were composed of 24 distinct, non-recurring heptads. Thus, our design al ... || We compared the new designs to designed peptides targeting XBP1 and JUN reported by Grigoryan et al. for which FRET measurements were available. […] It should be noted that XBP1 presents a challenging target because three of its core a positions are occupied by asparagines. A matching asparagi ...

[2] = target: partner bZIP coiled coil (Protein2); settings: Protein2 = CI12 (CI), inter; 5000 assigned if Kd >5,000 nM or no binding; cited from earlier work
Protocol: Supplement pcbi.1004046.s020.csv, table | column: Kd || Fig 4 Designed bZIP-binding peptides inhibit interactions of native bZIP dimers. […] The dissociation constants at the indicated temperatures are Kd ≤ 1 nM for FOS-JUN, Kd ≤1 nM for XBP1-CREBZF, and Kd = 60 nM for ATF4-FOS, according to [18]. Fluorescence intensities were measured at both 37°C and 23°C, a ...

[3] = target: T2, JUN bZIP construct, C-terminally fluoresceinated (human, UniProt P05412 252-315, fluorescein at the C-terminus); test: FRET or BRET; direct-binding FRET at 37°C; 10 nM fluorescein-labelled bZIP (donor), rhodamine-labelled design (acceptor) titrated 0 to 1 μM; 150 mM KCl, 50 mM potassium phosphate pH 7.4, 0.1% Tween-20, 0.1% BSA; settings: both partners purified
T2 construct: source: previously described, donated by A.W. Reinke [18]
T2 sequence (P05412 252-315): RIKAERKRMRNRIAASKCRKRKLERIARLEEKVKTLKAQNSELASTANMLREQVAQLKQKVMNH

[4] = target: JUN (Homo sapiens, UniProt P05412); parameters: made in house; settings: native human bZIP binding JUN; cited from earlier work
Sequence of JUN (P05412 252-315 limits assumed): as the sequence (P05412 252-315) above
Excerpt: For most bZIP pairs, binding of the N-terminally labeled designed peptide to a C-terminally labeled target gave very little signal, and such curves could rarely be fit to provide Kd values (S9–S12 Tables). In a few cases where interactions could be quantified with both N- and C-terminal dye labeling, we observed that the affinity of N-terminally labeled designs for C-terminally labeled targets was somewhat weaker than the affinity of C-terminally labeled designs (S5–S12 Tables). Enhanced affinities attributable to dye interactions have been reported previously. […] For example, XBP1-d1 was composed of heptads from N. vectensis, C. elegans and C. intestinalis proteins, and from previously designed bZIP binders. We also note that our four designs were composed of 24 distinct, non-recurring heptads. Thus, our design al ... || We compared the new designs to designed peptides targeting XBP1 and JUN reported by Grigoryan et al. for which FRET measurements were available. […] It should be noted that XBP1 presents a challenging target because three of its core a positions are occupied by asparagines. A matching asparagi ...

[5] = target: T3, ATF4 (Homo sapiens, UniProt P18848); settings: native human bZIP binding ATF4; cited from earlier work
T3 construct: made in house
T3 sequence (P18848 278-341 limits assumed): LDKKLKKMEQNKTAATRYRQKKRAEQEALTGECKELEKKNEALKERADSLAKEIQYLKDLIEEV
Excerpt: For example, XBP1-d1 was composed of heptads from N. vectensis, C. elegans and C. intestinalis proteins, and from previously designed bZIP binders. We also note that our four designs were composed of 24 distinct, non-recurring heptads. Thus, our design al ...

[6] = target: the molecule itself; test: FRET or BRET; homodimer Kd of the designed peptide determined by FRET, 23°C; dimer to monomers
[7] = target: T4, Activating Transcription Factor 4 (ATF4) bZIP construct, C-terminally fluoresceinated (human, UniProt P18848 278-351, fluorescein at the C-terminus); test: FRET or BRET; direct-binding FRET at 37°C; 10 nM fluorescein-labelled bZIP (donor), rhodamine-labelled design (acceptor) titrated 0 to 1 μM; 150 mM KCl, 50 mM potassium phosphate pH 7.4, 0.1% Tween-20, 0.1% BSA; settings: both partners purified
T4 construct: source: previously described, donated by A.W. Reinke [18]
T4 sequence (looked up): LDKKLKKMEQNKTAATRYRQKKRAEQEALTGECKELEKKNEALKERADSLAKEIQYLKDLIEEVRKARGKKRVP

Molecule: ATF6: native human bZIP coiled coil
- Kd [1]: 1 nM
- Kd [2]: 5000 nM

B1: JUN-d1, rhodamine-labelled at the C-terminus (designed binder)
chain: GESKEYKKGSGSSIAATLEKEEANLEKMNKKLAAEIESLLKEKDKLESVLNYHEGC(Rhodamine Red C2‑maleimide)
notes: solubility linker after the His tag; added at the C-terminus for labelling; source: E. coli RP3098, purified (Ni-NTA under denaturing conditions, reverse-phase HPLC)
- Kd [3]: 5.8 ± 0.7 nM

B2: FOS: native human bZIP coiled coil (protein)
chain: EEKRRIRRERNKMAAAKCRNRRRELTDTLQAETDQLEDEKSALQTEIANLLKEKEKLEFILAAH
modifications: C-terminal TAMRA when used as FRET acceptor
- Kd [4]: 1 nM

B3: ATF6B: native human bZIP coiled coil (protein)
chain: MAELMLLSEIADPTRFFTDNLLSPEDWGLQNSTLYSGLDEVAEEQTQLFRCPEQDVPFDGSSLDVGMDVSPSEPPWELLPIFPDLQVKSEPSSPCSSSSLSSESSRLSTEPSSEALGVGEVLHVKTESLAPPLCLLGDDPTSSFETVQINVIPTSDDSSDVQTKIEPVSPCSSVNSEASLLSADSSSQAFIGEEVLEVKTESLSPSGCLLWDVPAPSLGAVQISMGPSLDGSSGKALPTRKPPLQPKPVVLTTVPMPSRAVPPSTTVLLQSLVQPPPVSPVVLIQGAIRVQPEGPAPSLPRPERKSIVPAPMPGNSCPPEVDAKLLKRQQRMIKNRESACQSRRKKKEYLQGLEARLQAVLADNQQLRRENAALRRRLEALLAENSELKLGSGNRKVVCIMVFLLFIAFNFGPVSISEPPSAPISPRMNKGEPQPRRHLLGFSEQEPVQGVEPLQGSSQGPKEPQPSPTDQPSFSNLTAFPGGAKELLLRDLDQLFLSSDCRHFNRTESLRLADELSGWVQRHQRGRRKIPQRAQERQKSQPRKKSPPVKAVPIQPPGPPERDSVGQLQLYRHPDRSQPAFLDAIDRREDTFYVVSFRRDHLLLPAISHNKTSRPKMSLVMPAMAPNETLSGRGAPGDYEEMMQIECEVMDTRVIHIKTSTVPPSLRKQPSPTPGNATGGPLPVSAASQAHQASHQPLYLNHP
modifications: fluorescein at the C-terminus (FRET donor) or TAMRA (FRET acceptor), by assay
notes: native human bZIP coiled coil
- Kd [5]: ≥ 5000 nM

B4: ATF4-d1, rhodamine-labelled at the C-terminus (designed binder)
chain: GESKEYKKGSGSNQIKTLRTRLSKLRKDNLQLEKDIANLERKAKDLRAEKEQLEYELGC(Rhodamine Red C2‑maleimide)
notes: solubility linker after the His tag; added at the C-terminus for labelling; also used for the homodimer row; source: E. coli RP3098, purified (Ni-NTA under denaturing conditions, reverse-phase HPLC)
- Kd [6]: 36.3 nM
- Kd [7]: 9.3 ± 2.3 nM
